# Experimental data as given in patent US20090123452A1 (TORREY PINES INSTITUTE FOR MOLECULAR STUDIES AND CATALYST …, published 2009).
# T1: mutant antithrombin III AT3/SLGR-KI (human, UniProt P01008 33-464)
# T1 construct: RCL residues IAGRSL are replaced by SLGRKI; also called AT3 (AT3/SLGR-KI)
# T1 chain: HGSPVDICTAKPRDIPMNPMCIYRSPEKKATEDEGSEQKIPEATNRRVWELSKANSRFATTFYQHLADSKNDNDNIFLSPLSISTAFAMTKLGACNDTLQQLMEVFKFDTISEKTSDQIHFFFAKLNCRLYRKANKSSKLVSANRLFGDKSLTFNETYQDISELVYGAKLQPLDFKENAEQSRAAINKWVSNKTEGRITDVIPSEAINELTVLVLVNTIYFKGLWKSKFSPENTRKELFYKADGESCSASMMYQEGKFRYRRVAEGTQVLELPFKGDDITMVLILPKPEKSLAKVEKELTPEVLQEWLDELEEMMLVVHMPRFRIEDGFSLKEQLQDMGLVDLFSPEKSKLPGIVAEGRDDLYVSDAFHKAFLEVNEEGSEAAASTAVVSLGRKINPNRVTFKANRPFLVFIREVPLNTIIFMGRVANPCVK
# Biological target: T1, mutant antithrombin III AT3/SLGR-KI
# Assay: phage display selection: complex with His-tagged AT3-SLGRKI bait captured by anti-His antibody on plate
row,Binder,binding result
1,"Mutant MT-SP1 clone CPC-0023085 (phage) (enzyme, I41F/C122S) VVGGTDADEGEWPWQVSLHALGQGHFCGASLISPNWLVSAAHCYIDDRGFRYSDPTQWTAFLGLHDQSQRSAPGVQERRLKRIISHPFFNDFTFDYDIALLELEKPAEYSSMVRPISLPDASHVFPAGKAIWVTGWGHTQYGGTGALILQKGEIRVINQTTCENLLPQQITPRMMCVGFLSGGVDSCQGDSGGPLSSVEADGRIFQAGVVSWGDGCAQRNKPGVYTRLPLFRDWIKENTGVSGSSGGGSEGGGSEGGGSEGGGSGGGSGSGDFDYEKMANANKGAMTENADENALQSDAKGKLDSVATDYGAAIDGFIGDVSGLANGNGATGDFAGSNSQMAQVGDGDNSPLMNNFRQYLPSLPQSVECRPFVFSAGKPYEFSIDCDKINLFRGVFAFLLYVATFMYVFSTFANILRNKES",binds
2,"Mutant MT-SP1 clone CPC-0019595 (phage) (enzyme, C122S/I136T/N164D/T166A/F184(A)L/D217V (chymotrypsin numbering); the STII leader is not counted) VVGGTDADEGEWPWQVSLHALGQGHICGASLISPNWLVSAAHCYIDDRGFRYSDPTQWTAFLGLHDQSQRSAPGVQERRLKRIISHPFFNDFTFDYDIALLELEKPAEYSSMVRPISLPDASHVFPAGKATWVTGWGHTQYGGTGALILQKGEIRVIDQATCENLLPQQITPRMMCVGLLSGGVDSCQGDSGGPLSSVEADGRIFQAGVVSWGVGCAQRNKPGVYTRLPLFRDWIKENTGVSGSSGGGSEGGGSEGGGSEGGGSGGGSGSGDFDYEKMANANKGAMTENADENALQSDAKGKLDSVATDYGAAIDGFIGDVSGLANGNGATGDFAGSNSQMAQVGDGDNSPLMNNFRQYLPSLPQSVECRPFVFSAGKPYEFSIDCDKINLFRGVFAFLLYVATFMYVFSTFANILRNKES",binds
3,"Mutant MT-SP1 clone CPC-0025582 (phage) (enzyme, I41F/C122S/L171F/V244G) VVGGTDADEGEWPWQVSLHALGQGHFCGASLISPNWLVSAAHCYIDDRGFRYSDPTQWTAFLGLHDQSQRSAPGVQERRLKRIISHPFFNDFTFDYDIALLELEKPAEYSSMVRPISLPDASHVFPAGKAIWVTGWGHTQYGGTGALILQKGEIRVINQTTCENFLPQQITPRMMCVGFLSGGVDSCQGDSGGPLSSVEADGRIFQAGVVSWGDGCAQRNKPGVYTRLPLFRDWIKENTGGSGSSGGGSEGGGSEGGGSEGGGSGGGSGSGDFDYEKMANANKGAMTENADENALQSDAKGKLDSVATDYGAAIDGFIGDVSGLANGNGATGDFAGSNSQMAQVGDGDNSPLMNNFRQYLPSLPQSVECRPFVFSAGKPYEFSIDCDKINLFRGVFAFLLYVATFMYVFSTFANILRNKES",binds
4,"Mutant MT-SP1 clone CPC-0024153 (phage) (enzyme, I41F/C122S/A126T/V244G) VVGGTDADEGEWPWQVSLHALGQGHFCGASLISPNWLVSAAHCYIDDRGFRYSDPTQWTAFLGLHDQSQRSAPGVQERRLKRIISHPFFNDFTFDYDIALLELEKPAEYSSMVRPISLPDTSHVFPAGKAIWVTGWGHTQYGGTGALILQKGEIRVINQTTCENLLPQQITPRMMCVGFLSGGVDSCQGDSGGPLSSVEADGRIFQAGVVSWGDGCAQRNKPGVYTRLPLFRDWIKENTGGSGSSGGGSEGGGSEGGGSEGGGSGGGSGSGDFDYEKMANANKGAMTENADENALQSDAKGKLDSVATDYGAAIDGFIGDVSGLANGNGATGDFAGSNSQMAQVGDGDNSPLMNNFRQYLPSLPQSVECRPFVFSAGKPYEFSIDCDKINLFRGVFAFLLYVATFMYVFSTFANILRNKES",binds
5,"Mutant MT-SP1 clone CPC-0025366 (phage) (enzyme, D23E/I41F/T98P/C122S/T144I) VVGGTDAEEGEWPWQVSLHALGQGHFCGASLISPNWLVSAAHCYIDDRGFRYSDPTQWTAFLGLHDQSQRSAPGVQERRLKRIISHPFFNDFPFDYDIALLELEKPAEYSSMVRPISLPDASHVFPAGKAIWVTGWGHIQYGGTGALILQKGEIRVINQTTCENLLPQQITPRMMCVGFLSGGVDSCQGDSGGPLSSVEADGRIFQAGVVSWGDGCAQRNKPGVYTRLPLFRDWIKENTGVSGSSGGGSEGGGSEGGGSEGGGSGGGSGSGDFDYEKMANANKGAMTENADENALQSDAKGKLDSVATDYGAAIDGFIGDVSGLANGNGATGDFAGSNSQMAQVGDGDNSPLMNNFRQYLPSLPQSVECRPFVFSAGKPYEFSIDCDKINLFRGVFAFLLYVATFMYVFSTFANILRNKES",binds
